Patent publication US20100204147A1 (REGENERX BIOPHARMACEUTICALS, published 2010)

Columns and labels:
Assay in all cases: ELISA, immobilized fragment, without factor XIII or with non-activated factor XIII
[1] = biological target: T1, Recombinant αC-fragment corresponding to the human fibrinogen αC-domain (residues Aα221-610) (human, UniProt P02671 240-629)
T1 construct: By fibrinogen convention they are probably mature Aα chain numbering, without the signal peptide
T1 sequence (looked up): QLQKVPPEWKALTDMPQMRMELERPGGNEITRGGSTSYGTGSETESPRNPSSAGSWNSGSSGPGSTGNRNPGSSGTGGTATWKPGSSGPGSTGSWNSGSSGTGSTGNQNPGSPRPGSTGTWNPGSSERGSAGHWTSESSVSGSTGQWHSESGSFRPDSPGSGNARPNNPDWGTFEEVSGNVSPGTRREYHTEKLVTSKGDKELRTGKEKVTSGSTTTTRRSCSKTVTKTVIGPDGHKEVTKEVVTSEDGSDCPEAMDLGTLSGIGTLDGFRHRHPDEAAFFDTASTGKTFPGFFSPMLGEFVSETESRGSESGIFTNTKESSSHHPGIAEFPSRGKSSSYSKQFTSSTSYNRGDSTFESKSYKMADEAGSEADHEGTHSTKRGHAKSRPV
Description: (§1) The interaction between thymosin β4 and fibrin(ogen) and its fragments in the presence or absence of FXIIIa was studies by ELISA using plastic microliter plates. Wells of microliter plates were coated overnight at −4° C. with fibrinogen and fibrin at 10 μg/mL or with the recombinant fragments of 20 μg/ml, all in 0.1 M NaHCO₃ buffer, pH 8.3. Fibrin was made by addition to the wells of a mixture containing 10 μg/mL fibrinogen 1 NIH u/ml thrombin and 400 u/ml aprotinin, followed by overnight incubation at +4° C. The wells were then blocked by incubation with Super Blocker (Pierce) at 37° C. for 1 h. Following washing with TBS containing 0.05% Tween-20 (TBS-Tween), the indicated concentrations of thymosin β4, FXIII, FXIIIa(Thr) and FXIIIa(Ca) were added to the wells and incubated for 2-2.5 h at 37° C. Bound (incorporated) thymosin β4 was detected by the reaction with rabbit anti-thymosin β4 serum and peroxidase-conjugated anti-rabbit IgG. A TMB Microwell Peroxidase Substrase was added to the wells, and the incorporated thymosin β4 was measured spectrophotometrically at 450 nm.
(§2) The above observations were confirmed by ELISA. […] It should be noted that the incorporation of the γ-module was almost twice lower than that of the αC-domain variants at all concentration studied. When thymosin β4 was incubated with the same immobilized species in the presence of non-activated factor XIII or without it, the incorporation was very low in all cases.

[2] = biological target: T2, Recombinant truncated αC-fragment, NH2-terminal half (residues Aα221-391) (human, UniProt P02671 240-410)
T2 construct: probably the mature Aα chain
T2 sequence (looked up): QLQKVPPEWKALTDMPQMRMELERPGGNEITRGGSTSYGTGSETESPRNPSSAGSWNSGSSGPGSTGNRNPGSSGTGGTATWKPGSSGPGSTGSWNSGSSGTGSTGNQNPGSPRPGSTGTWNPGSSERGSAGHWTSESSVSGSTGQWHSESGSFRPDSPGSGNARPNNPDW
Description: as §1, §2

[3] = biological target: T3, Recombinant truncated αC-fragment, COOH-terminal half (residues Aα392-610) (human, UniProt P02671 411-629)
T3 construct: probably the mature Aα chain; also called Aα392-610 sub-fragment; Aα392-610 fragment
T3 sequence (looked up): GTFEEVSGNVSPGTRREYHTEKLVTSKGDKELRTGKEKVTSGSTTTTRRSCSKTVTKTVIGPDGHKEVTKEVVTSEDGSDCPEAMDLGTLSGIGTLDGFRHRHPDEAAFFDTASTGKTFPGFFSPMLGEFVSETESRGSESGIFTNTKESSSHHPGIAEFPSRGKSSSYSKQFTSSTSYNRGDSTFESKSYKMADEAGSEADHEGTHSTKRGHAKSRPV
Description: as §1, §2

Measured: binding result

SDKPDMAEIEKFDKSKLKKTETQEKNPLPSKETIEQEKQAGES (peptide, UniProt P62328 2-44, looked up, not fully specified, mature; also called Tβ4) [Synthetic thymosin β4]
no binding: all assays above
